The values that follow come from patent publication US20180298070A1, “PEPTIDE COMPOUND” (Takeda Pharmaceutical Company Limited, published 2018).

Non-standard residues stand in square brackets, D forms with d. Groups on a side chain read outwards from the residue. Primed or numbered codes have the meaning given here. No end group written: not given here. *: point of attachment. C20 diacid = O=C(O)CCCCCCCCCCCCCCCCCCC(=O)*; NMeY = CN[C@@H](Cc1ccc(O)cc1)C(=O)O; Stearoyl = CCCCCCCCCCCCCCCCCC(=O)*; αMeF = C[C@](N)(Cc1ccccc1)C(=O)O; dIva = CC[C@@](C)(N)C(=O)O; Iva = CC[C@](C)(N)C(=O)O; PEG2′ = not defined here; Aib = CC(C)(N)C(=O)O Some results are limits rather than exact numbers.

Experiment [1] has as its target T1, human GIPR (human), P48546.
T1 chain: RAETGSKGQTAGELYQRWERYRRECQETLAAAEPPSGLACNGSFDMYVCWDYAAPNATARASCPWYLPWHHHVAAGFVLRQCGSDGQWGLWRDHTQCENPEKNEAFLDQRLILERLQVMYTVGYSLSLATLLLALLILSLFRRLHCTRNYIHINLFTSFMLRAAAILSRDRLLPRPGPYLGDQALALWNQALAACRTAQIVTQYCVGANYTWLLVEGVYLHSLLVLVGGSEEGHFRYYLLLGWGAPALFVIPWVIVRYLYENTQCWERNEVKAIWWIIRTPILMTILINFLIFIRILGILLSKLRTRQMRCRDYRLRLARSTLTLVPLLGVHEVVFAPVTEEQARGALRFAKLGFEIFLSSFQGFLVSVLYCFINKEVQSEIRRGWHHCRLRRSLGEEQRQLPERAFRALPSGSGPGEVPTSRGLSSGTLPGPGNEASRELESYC

Experiment [2] deals with T2, human GLP-1R (human), P43220.
T2 chain: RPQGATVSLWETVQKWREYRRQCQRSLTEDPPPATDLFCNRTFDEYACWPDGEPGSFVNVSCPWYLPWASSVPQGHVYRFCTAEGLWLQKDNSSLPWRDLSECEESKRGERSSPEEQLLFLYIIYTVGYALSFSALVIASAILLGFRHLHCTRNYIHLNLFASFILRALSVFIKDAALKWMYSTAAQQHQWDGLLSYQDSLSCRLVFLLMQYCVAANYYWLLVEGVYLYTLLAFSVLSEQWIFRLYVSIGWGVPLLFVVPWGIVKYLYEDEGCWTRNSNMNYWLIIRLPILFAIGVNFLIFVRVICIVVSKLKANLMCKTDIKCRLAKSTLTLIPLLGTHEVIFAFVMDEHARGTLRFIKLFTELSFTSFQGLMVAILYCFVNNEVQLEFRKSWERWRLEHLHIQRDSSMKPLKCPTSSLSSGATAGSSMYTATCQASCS

In experiment [1], Y[Aib]EGTFISDYSK([PEG2′-pentadecanoyl])ALDRIAQQDFVNWLLAQRPSSGAPPPSR (ends and bridges not checked) [Compound 187] registered an Agonist activity (EC50, M) of 1.2e-11 M. Y[Aib]EGTVVSLYSK([Gly-Gly-Gly-Gly-C20 diacid])[Aib]LDRQAQ[Aib]EFVRWLLAQR (ends and bridges not checked) [Compound 256]: the figures for the Agonist activity (EC50, M) in experiment [1] and in experiment [2] were 3.1e-10 M and greater than 1e-06 M, respectively. Taken in the same sequence, the figures for [NMeY][Aib]EGTFISDYSIALDRIAQQSFVNWLLAQRPSSGAPPPSR (ends and bridges not checked) [Compound 60] were 1.1e-12 M and greater than 1e-06 M. For the molecule [NMeY][Aib]EGTFISDYSI[dIva]LDRIAQQDFVNWLLAQRPSSGAPPPS (ends and bridges not checked) [Compound 63], the results for the Agonist activity (EC50, M) in experiment [1] and in experiment [2] were 1.2e-12 M and greater than 1e-06 M, respectively. For [NMeY][Aib]EGTFISDYSIALDR[Aib]AQQD[αMeF]VNWLLAQRPSSGAPPPSR (not fully specified (C-terminus); ends and bridges not checked) [Compound 73], in that order: 1.4e-12 M and greater than 1e-06 M.

Me-Y[Aib]EGTFISDYSIALDR[Aib]AQ[Aib]SFVNW[Iva]LAQRPSSGAPPPSR (not fully specified (residue 1, C-terminus); ends and bridges not checked) [Compound 126]: the Agonist activity (EC50, M) is 2.1e-12 M in experiment [1] and greater than 1e-06 M in experiment [2]. For the molecule [NMeY][Aib]EGTFISDYSI[Iva]LDRIAQQD[αMeF]VNWLLAQRPSSGAPPPSR (not fully specified (C-terminus); ends and bridges not checked) [Compound 74], the Agonist activity (EC50, M) is 1.4e-12 M in experiment [1] and greater than 1e-06 M in experiment [2]. For [NMeY][Aib]EGTFISDYSIALDRIAQ[Aib]N[αMeF]VNW[Iva]LAQRPSSGAPPPSR (not fully specified (C-terminus); ends and bridges not checked) [Compound 76], in that order: 1.5e-12 M and greater than 1e-06 M. Consider Y[Aib]EGTVVSLYSK([Gly-Gly-Gly-Gly-C20 diacid])[Aib]LDRQAQ[Aib]EFVK(Ac)WLLAQR (ends and bridges not checked) [Compound 259], for which the Agonist activity (EC50, M) in experiment [1] was 1.2e-10 M; in experiment [2], greater than 1e-06 M. As to [NMeY][Aib]EGTFISDYSIALDRIAQQD[αMeF]VNWLLAQRPSSGAPPPS (ends and bridges not checked) [Compound 62], the values for the Agonist activity (EC50, M) in experiment [1] and in experiment [2] were 9.9e-13 M and greater than 1e-06 M, respectively.

Consider [NMeY][Aib]EGTFISDYSIALDRIAQQSFVNW[Iva]LAQRPSSGAPPPSR (not fully specified (N-terminus, C-terminus); ends and bridges not checked) [Compound 67], for which the figures for the Agonist activity (EC50, M) in experiment [1] and in experiment [2] were 1.4e-12 M and greater than 1e-06 M, respectively. For Me-Y[Aib]EGTFISDYSIALDRIAQ[Aib]S[αMeF]VNW[Iva]LAQRPSSGAPPPSR (not fully specified (residue 1, C-terminus); ends and bridges not checked) [Compound 125], in that order: 1.8e-12 M and greater than 1e-06 M. Taken in the same sequence, the figures for Y[Aib]EGTFISDYSK([PEG(2)-C20 diacid])ALDRIAQQNFVNW[Iva]LAQRPSSGAPPPS (not fully specified (C-terminus); ends and bridges not checked) [Compound 402] were 7.8e-11 M and greater than 1e-06 M. Y[Aib]EGTVVSLYSK([Gly-Gly-Gly-Gly-Stearoyl])[Aib]LDRQAQ[Aib]EFVRWLLAQR (ends and bridges not checked) [Compound 258]: the Agonist activity (EC50, M) was 9.2e-11 M in experiment [1] and greater than 1e-06 M in experiment [2]. Taken in the same sequence, the figures for [NMeY][Aib]EGTFISDYSI[dIva]LDR[Aib]AQQD[αMeF]VNWLLAQRPSSGAPPPSR (ends and bridges not checked) [Compound 81] were 1.5e-12 M and greater than 1e-06 M. For Y[Aib]EGTVVSLYSK([Gly-Gly-Gly-Gly-Stearoyl])[Aib]LDRQAQ[Aib]EFVK(Ac)WLLAQR (ends and bridges not checked) [Compound 261], the Agonist activity (EC50, M) in experiment [1] was 5.5e-11 M; in experiment [2], greater than 1e-06 M. As to [NMeY][Aib]EGTFISDYSIALDR[Aib]AQ[Aib]N[αMeF]VNW[Iva]LAQRPSSGAPPPSR (ends and bridges not checked) [Compound 114], the Agonist activity (EC50, M) in experiment [1] was determined as 1e-12 M. In the case of [NMeY][Aib]EGTFISDYSIALDRIAQ[Aib]DFVNW[Iva]LAQRPSSGAPPPSR (ends and bridges not checked) [Compound 123], the Agonist activity (EC50, M) in experiment [1] was 1.3e-12 M; in experiment [2], greater than 1e-06 M. Taken in the same sequence, the figures for [NMeY][Aib]EGTFISDYSIALDR[Aib]AQ[Aib]NFVNWLLAQRPSSGAPPPSR (ends and bridges not checked) [Compound 82] were 1.4e-12 M and 1e-07 M. On to [NMeY][Aib]EGTFISDYSI[dIva]LDR[dIva]AQ[dIva]NFVNWLLAQRPSSGAPPPSR (not fully specified (N-terminus, C-terminus); ends and bridges not checked) [Compound 103], for which the Agonist activity (EC50, M) in experiment [1] was 1.3e-12 M; in experiment [2], greater than 1e-06 M. In the case of [NMeY][Aib]EGTFISDYSIALDR[Aib]AQ[Aib]N[αMeF]VNWLLAQRPSSGAPPPSR (ends and bridges not checked) [Compound 98], the Agonist activity (EC50, M) in experiment [1] was 1.4e-12 M; in experiment [2], greater than 1e-06 M. In the case of Y[Aib]EGTFISDYSK([PEG(2)-C20 diacid])ALDRIAQQNFVNW[Iva]LAQRPSSGAPPPS (not fully specified (C-terminus); ends and bridges not checked) [Compound 406], the Agonist activity (EC50, M) in experiment [1] is 3.2e-10 M; in experiment [2], greater than 1e-06 M.

As for [NMeY][Aib]EGTFISDYSI[dIva]LDR[Aib]AQ[Aib]NFVNW[Iva]LAQRPSSGAPPPSR (ends and bridges not checked) [Compound 85], the Agonist activity (EC50, M) in experiment [1] was 1.1e-12 M; in experiment [2], greater than 1e-06 M. With [NMeY][Aib]EGTFISDYSI[dIva]LDRIAQ[Aib]NFVNWLLAQRPSSGAPPPSR (ends and bridges not checked) [Compound 83], the Agonist activity (EC50, M) in experiment [1] is 1.7e-12 M; in experiment [2] it was 1.7e-07 M.

With [NMeY][Aib]EGTFISDYSIALDRIAQQS[αMeF]VNW[Iva]LAQRPSSGAPPPSR (not fully specified (C-terminus); ends and bridges not checked) [Compound 75], the Agonist activity (EC50, M) in experiment [1] was 1.4e-12 M; in experiment [2] it was greater than 1e-06 M.

On to Y[Aib]EGTVVSLYSK([Gly-Gly-Gly-Gly-Stearoyl])[Aib]LDRQAQ[Aib]EFVRWLLAQR (ends and bridges not checked) [Compound 257], for which the Agonist activity (EC50, M) in experiment [1] is 9e-11 M; in experiment [2] it was greater than 1e-06 M.
